Here are results for one substance from article PMC8585947, “Structure of Escherichia coli cytochrome bd-II type oxidase with bound aurachin D” (Nature Communications, 2021).

As usually defined, the stoichiometry N is the number of molecules, sites or subunits per partner or assembly.

The target in the test is Escherichia coli cytochrome bd-II type oxidase (hetero-trimer of AppC, AppB and AppX) (E. coli) (UniProt P26459). Nature of the test: cryo-EM structure; bd-II in amphipol A8-35, 5.6 mg/mL, incubated with aurachin D; 20 mM MOPS, 20 mM NaCl, pH 7.0; C2 symmetry imposed; 3.0 Å.

On to “Escherichia coli cytochrome bd-II type oxidase (hetero-trimer of AppC, AppB and AppX) (from UniProt P26459 1-514; P26458 1-378; P24244 1-30) (complex)”, for which the stoichiometry N is 2.
